Test [1] has as its target MTTE peptide (minimal tetanus toxin epitope), biotinylated (Clostridium tetani).
Test [2] addresses SM083P004 (Clostridium tetani).

B1: 14GIIICII-b scFv (scFv)
scFv: QVQLQQPGAELVMPGASVNLSCKASGYTFTDYWMHWVKQRPGQGLEWIGEIDPSDNFSNLNQNFRGKATLTVDKSSRTAFLQLSSLTSEDSAVYYCAVEDYWGQGTTLTVSSGGGGSGGGGSGGGGSGGGGSDIVMTQATPSVLVTPGEAVSISCRASRSLLHSNGITYLYWFLQRPGQSPQVLIYRMSNLVSGVPDRFSGSGSGTAFTLRISRVEAEDVGVYYCMQHLEFPYTFGGGTKLEIK
In test [1], B1 came in with a Kd of 1.8 nM, a koff of 0.00032 s⁻¹ and a kon of 180000 M⁻¹ s⁻¹.

B2: scFv Y-SM083-p04-D04 (scFv)
scFv: EVQLLESGGGLVQPGGSLRLSCAASGFTFSGYYMYWVRQAPGKGLEWVSYIGYSGGGTGYADSVKGRFTISRDNSKNTLYLQMNSLRAEDTAVYYCARVPFGAFDYWGQGTLVTVSSGGGGSGGGGSGGGGSDIQMTQSPSSLSASVGDRVTITCRASQSISSYLNWYQQKPGKAPKLLIYAASSLQSGVPSRFSGSGSGTDFTLTISSLQPEDFATYYCQQYYGFPYTFGQGTKLEIK
With B2, in test [2], the Kd was found to be 3.3 nM, the koff came to 0.00043 s⁻¹ and the kon stood at 130000 M⁻¹ s⁻¹.

B3: IBIIICI-b scFv (scFv)
scFv: EVRLLQSGAALVRPGASVKLSCTASGFNIKDFNIHWVKQRPEQGLEWIGRIDPENGDAEYVPKFQVRATMTTDTSSNTVYLHLSSLTSGDTAVYYCTTGSYDLDVEYWGQGTTLTVSSGGGGSGGGGSGGGGSGGGGSELQMTQSPSSLSASLGDTVTITCHASQNINVWLSWYQQRPGNIPKLLIYKASTLHTGVPSRFRGSGSGTGFTLTISSLQPEDIATYYCQQGQSYPLTFGAGTKLELK
In test [1], B3 gave a Kd of 0.52 nM, a koff of 0.00048 s⁻¹ and a kon of 920000 M⁻¹ s⁻¹.
